Test results published in patent publication EP4813396A2 (Amphivena Therapeutics, Inc., dated 2026).
Numbering of substitutions follows the chain as printed.

B1: CD33/CD3 tandem diabody 08 (bispecific antibody)
chain: QSVLTQPPSASGTPGQRVTISCSGSRSNIGSNTVNWYQQLPGTAPKLLIYGNNQRPSGVPDRFSGSKSGSSASLAISGLQSEDEADYYCATWDDSLIGWVFGGGTKLTVLGGSGGSEVQLVESGGGLVQPGGSLRLSCAASGFTFSTYAMNWVRQAPGKGLEWVGRIRSKYNNYATYYADSVKDRFTISRDDSKNSLYLQMNSLKTEDTAVYYCARHGNFGNSYVSYFAYWGQGTLVTVSSGGSGGSDIQMTQSPSSLSASVGDRVTITCRSSTGAVTTSNYANWVQQKPGKAPKALIGGTNKRAPGVPSRFSGSLIGDKATLTISSLQPEDFATYYCALWYSNLWVFGQGTKVEIKGGSGGSQVQLVQSGAEVKKPGASVKVSCKASGYTFTSYDINWVRQAPGQGLEWMGWMNPNSGNTGFAQKFQGRVTMTRDTSTSTVYMELSSLRSEDTAVYYCARDRANTDFSYGMDVWGQGTLVTVSSAAAGSHHHHHH
notes: Non-covalent homodimer; domain order 3 VL(CD33)-L1-VH(CD3)-L2-VL(CD3)-L3-VH(CD33); also called TandAb 08; tandem diabody 8
B2: CD33/CD3 tandem diabody 20 (bispecific antibody)
chain: DIQMTQSPSSLSASVGDRVTITCRSSTGAVTTSNYANWVQQKPGKAPKGLIGGTNKRAPGVPSRFSGSLIGTDFTLTISSLQPEDFATYYCALWYSNLWVFGQGTKVEIKGGSGGSQVQLVQSGAEVKKPGASVKVSCKASGYTFTSYYMHWVRQAPGQGLEWMGIINPSGGSTSYAQKFQGRVTMTRDTSTSTVYMELSSLRSEDTAVYYCARDVVPAAIDYYGMDVWGQGTTVTVSSGGSGQSVLTQPPSASGTPGQRVTISCSGSSSNIGSNTVNWYQQLPGTAPKLLIYSDNQRPSGVPDRFSGSKSGSSASLAISGLQSDDEADYYCATWDDSLNGAVFGGGTKLTVLGGSGGSEVQLVESGGGLVQPGGSLRLSCAASGFTFSTYAMNWVRQAPGKGLEWVGRIRSKYNNYATYYADSVKDRFTISRDDSKNSLYLQMNSLKTEDTAVYYCARHGNFGNSYVSWFAYWGQGTLVTVSS
notes: Non-covalent homodimer; domain order 1; also called TandAb 20
B3: CD33/CD3 tandem diabody 18 (bispecific antibody)
chain: EVQLVESGGGLVQPGGSLRLSCAASGFTFSTYAMNWVRQAPGKGLEWVGRIRSKYNNYATYYADSVKDRFTISRDDSKNSLYLQMNSLKTEDTAVYYCARHGNFGNSYVSYFAYWGQGTLVTVSSGGSGGSQSVLTQPPSVSGAPGQRVTISCTGSSSNIGAGYDVHWYQQLPGTAPKLLIYGNSNRPSGVPDRFSGSKSGTSASLAITGLQAEDEADYYCQSYDSSLSDVVFGGGTKLTVLGGSGQVQLVQSGAEVKKPGESLKISCKGSGYSFTSYWIGWVRQMPGKGLEWMGIIYPGDSDTRYSPSFQGQVTISADKSISTAYLQWSSLKASDTAMYYCARHKRGSDAFDIWGQGTTVTVSSGGSGGSDIQMTQSPSSLSASVGDRVTITCRSSTGAVTTSNYANWVQQKPGKAPKALIGGTNKRAPGVPSRFSGSLIGDKATLTISSLQPEDFATYYCALWYSNLWVFGQGTKVEIKAAAGSHHHHHH
notes: Non-covalent homodimer; domain order 2 VH(CD3)-L1-VL(CD33)-L2-VH(CD33)-L3-VL(CD3); also called TandAb 18
B4: CD33/CD3 tandem diabody 21 (bispecific antibody)
chain: DIQMTQSPSSLSASVGDRVTITCRSSTGAVTTSNYANWVQQKPGKAPKALIGGTNKRAPGVPSRFSGSLIGDKATLTISSLQPEDFATYYCALWYSNLWVFGQGTKVEIKGGSGGSQVQLVQSGAEVKKPGSSVKVSCKASGGTFSSYAISWVRQAPGQGLEWMGGIYPIFGSANYAQKFQGRVTITADESTSTAYMELSSLRSEDTAVYYCAREYYYDSSEWAFDIWGQGTLVTVSSGGSGQSVLTQPPSASGTPGQRVTISCSGSSSNIGSNIVNWYQQLPGTAPKLLIYSNNQRPSGVPDRFSGSKSGTSASLAISGLQSEDEADYYCAAWDDSLKGYVFGGGTKLTVLGGSGGSEVQLVESGGGLVQPGGSLRLSCAASGFTFSTYAMNWVRQAPGKGLEWVGRIRSKYNNYATYYADSVKDRFTISRDDSKNSLYLQMNSLKTEDTAVYYCARHGNFGNSYVSYFAYWGQGTLVTVSSAAAGSHHHHHH
notes: Non-covalent homodimer; domain order 1; also called TandAb 21
B5: CD33/CD3 tandem diabody 22 (bispecific antibody)
chain: B4 chain with A149G, Y168I, N175H, I275T, N277K, P298S, T312S, K339N
notes: Non-covalent homodimer; domain order 1; also called TandAb 22
B6: CD33/CD3 tandem diabody 10 (bispecific antibody)
chain: DIQMTQSPSSLSASVGDRVTITCRSSTGAVTTSNYANWVQQKPGKAPKGLIGGTNKRAPGVPSRFSGSLIGDKATLTISSLQPEDFATYYCALWYSNLWVFGQGTKVEIKGGSGGSQVQLVQSGAEVKKPGASVKVSCKASGYTFTSYDINWVRQAPGQGLEWMGWMNPNSGNTGFAQKFQGRVTMTRDTSTSTVYMELSSLRSEDTAVYYCARDRANTDYSFGMDVWGQGTLVTVSSGGSGQSVLTQPPSASGTPGQRVTISCSGSRSNIGSNTVNWYQQLPGTAPKLLIYGNNQRPSGVPDRFSGSKSGTSASLAISGLQSEDEADYYCATWDDSLIGWVFGGGTKLTVLGGSGGSEVQLVESGGGLVQPGGSLRLSCAASGFTFSTYAMNWVRQAPGKGLEWVGRIRSKYNNYATYYADSVKDRFTISRDDSKNSLYLQMNSLKTEDTAVYYCARHGNFGNSYVSWFAYWGQGTLVTVSSAAAGSHHHHHH
notes: Non-covalent homodimer; domain order 1; also called TandAb 10
B7: CD33/CD3 tandem diabody 09 (bispecific antibody)
chain: B6 chain with Y221F, F223Y, T312S
notes: Non-covalent homodimer; domain order 1; also called TandAb 09; tandem diabody 9
B8: CD33/CD3 tandem diabody 15 (bispecific antibody)
chain: B6 chain with G49A, W469Y
notes: Non-covalent homodimer; domain order 1; also called TandAb 15
B9: CD33/CD3 tandem diabody 11 (bispecific antibody)
chain: B6 chain with F223L
notes: Non-covalent homodimer; domain order 1; also called TandAb 11
B10: CD33/CD3 tandem diabody 01 (bispecific antibody)
chain: B6 chain with S63A, L69G, I70S, D72T, K73D, A74F, Y221F, F223Y, T312S
notes: Non-covalent homodimer; domain order 1 VL(CD3)-L1-VH(CD33)-L2-VL(CD33)-L3-VH(CD3); also called TandAb 01; tandem diabody 1
B11: CD33/CD3 tandem diabody 03 (bispecific antibody)
chain: B6 chain with S63A, L69G, I70S, D72T, K73D, A74F
notes: Non-covalent homodimer; domain order 1; also called TandAb 03; tandem diabody 3
B12: CD33/CD3 tandem diabody 02 (bispecific antibody)
chain: B6 chain with S63A, L69G, I70S, D72T, K73D, A74F, N218V, S222Y, F223Y
notes: Non-covalent homodimer; domain order 1; also called TandAb 02; tandem diabody 2
B13: CD33/CD3 tandem diabody 04 (bispecific antibody)
chain: B6 chain with S63A, L69G, I70S, D72T, K73D, A74F, F223L
notes: Non-covalent homodimer; domain order 1; also called TandAb 04; tandem diabody 4

Target: T1, human CD33 on cells (human, UniProt P20138 18-364)
T1 sequence (P20138 18-364): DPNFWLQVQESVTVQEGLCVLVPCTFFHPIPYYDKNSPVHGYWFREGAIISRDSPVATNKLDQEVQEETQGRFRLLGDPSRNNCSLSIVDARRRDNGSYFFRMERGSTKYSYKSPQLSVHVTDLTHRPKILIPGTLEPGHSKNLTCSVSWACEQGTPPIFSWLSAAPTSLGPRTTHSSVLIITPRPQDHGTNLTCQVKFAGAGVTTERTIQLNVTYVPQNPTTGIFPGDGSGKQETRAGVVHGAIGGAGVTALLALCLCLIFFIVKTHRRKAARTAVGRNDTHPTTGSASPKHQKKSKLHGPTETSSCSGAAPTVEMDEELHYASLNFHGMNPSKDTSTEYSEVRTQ
Experiment: cell-based or functional assay

Binder	EC50 on HL-60 [pM] (cytotoxicity)
B1	1.8
B2	10
B3	6.3
B4	7.6
B5	3.2
B6	7
B7	6.8
B8	1.8
B9	5.9
B10	1.9
B11	3.6
B12	0.5
B13	1.8

Target: T2, human CD3 on T cells (human, UniProt P07766 23-207)
T2 sequence (P07766 23-207): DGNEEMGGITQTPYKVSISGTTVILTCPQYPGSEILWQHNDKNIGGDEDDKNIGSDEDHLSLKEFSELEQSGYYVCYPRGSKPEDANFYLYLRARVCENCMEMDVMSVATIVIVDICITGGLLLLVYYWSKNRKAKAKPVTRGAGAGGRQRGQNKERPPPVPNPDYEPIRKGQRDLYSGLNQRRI
Experiment: cell-based or functional assay

Binder	CD25 Induction EC50 (pM)	CD69 Induction EC50 (pM)	T cell Proliferation in PBMC EC50 (pM)
B2	98	75	19
B4		225	500
B5	10	4	7
B6	10	6	6
B7	11	7	9
B8	6	7	7
B9	11	5	6
B10	92	91	89
B11	117	87	63
B12	42	27	4
B13	94	62	44

Target: T1, human CD33 on cells
Experiment: flow cytometry, HL-60 cells

Binder	Kd [nM]
B2	4.1
B4	9.7
B5	0.7
B6	0.5
B7	0.5
B8	0.4
B9	0.3
B10	0.6
B11	1.1
B12	0.2
B13	0.5

Target: T1, human CD33 on cells
Experiment: flow cytometry, titration on KG-1 cells

Binder	Kd [nM]
B1	0.5
B2	7
B3	16.3
B4	25.1
B5	2
B6	1
B7	0.3
B8	0.3
B9	0.5
B10	0.9
B11	1.8
B12	0.3
B13	0.5

Target: T1, human CD33 on cells
Experiment: flow cytometry, titration on HL-60 cells

Binder	Kd [nM]
B1	0.3
B2	4.1
B3	3.4
B4	9.7
B5	0.7
B6	0.5
B7	0.5
B8	0.4
B9	0.3
B10	0.6
B11	1.1
B12	0.2
B13	0.5

Target: T1, human CD33 on cells
Experiment: flow cytometry, titration on U-937 cells

Binder	Kd [nM]
B1	1.8
B2	7.2
B3	15.1
B4	80.2
B5	8.6
B6	1.7
B7	2.2
B8	0.9
B9	0.6
B10	7.1
B11	8.9
B12	0.9
B13	1.7

Target: T2, human CD3 on T cells
Experiment: flow cytometry, human T-cells (as headed in Table 10)

Binder	Kd [nM]
B2	144
B4	2.1
B5	4.1
B6	1.9
B7	2.4
B8	1.3
B9	2.6
B10	94.2
B11	81.9
B12	69.8
B13	79.3

Target: T2, human CD3 on T cells
Experiment: flow cytometry, titration on human CD3+ T cells (Jurkat per paragraph 124/paragraph 125)

Binder	Kd [nM]
B1	2.4
B2	144
B3	1.9
B4	2.1
B5	4.1
B6	1.9
B7	2.4
B8	1.3
B9	2.6
B10	94.2
B11	81.9
B12	69.8
B13	79.3

Target: cynomolgus CD33 on CHO cells (cynomolgus monkey)
Experiment: flow cytometry; KD on CHO-cynomolgus CD33 cells divided by KD on CHO-human CD33 cells

Binder	KD ratio cynoCD33/ huCD33
B1	0.6
B2	33.8
B3	3.1
B4	0.9
B5	0.6
B6	0.8
B7	1
B8	1.1
B9	1.2
B10	0.7
B11	0.6
B12	1.1
B13	1.1
